The values below come from patent US7435549 (MICROMET, dated 2008).

Experiment [1] deals with T1, CD80-VD4.5VK8 scFv(VH/VL) construct with short (Gly4Ser1)1 linker (human, UniProt P33681 35-242).
T1 construct: extracellular domain; Tested as CHO culture supernatant; also called bifunctional CD80-VD4.5VK8-scFv-construct; pEF-DHFR+CTI+CD80+scFv VD4.5VK8
Briefly: flow cytometry on 17-1A-transfected CHO cells, anti-CD80 detection. How it is done:
FIG. 9.1: Binding studies of 17-1A specific bifunctional CD80-scFv-constructs on 17-1A transfected (filled lines) and untransfected CHO cells (broken lines) detected by flow cytometry. 5 ×10^5 cells were incubated in 50 μl undiluted cell-culture supernatant containing the corresponding bifunctional construct. Bound bifunctional CD80-scFv-constructs were detected by a monoclonal anti-CD80 antibody (Immunotech. Cat. No.: 1449) diluted 1:20 in 50 μl PBS. Incubation conditions were the same as described in FIG. 8.5. Bound CD80-antibody was finally detected by a fluorescein conjugated polyclonal Goat Anti-Mouse IgG+IgM (H+L) antibody diluted 1:100 in PBS. Incubation was again carried out for 30 minutes on ice. For the fixation of fluorescein-labeled cells 1% paraformaldehyd in PBS was used. As first negative control untransfected CHO was used. […] Cells were analysed by flow cytometry on a FACS scan (Becton Dickenson).
For this purpose adherent untransfected and 17-1A-transfected CHO-cells were detached using PBS containing 0,05% Trypsine, respectively. […] Bound bifunctional CD80-scFv-constructs were detected by a monoclonal anti-CD80 antibody (Immunotech. Cat. No: 1449) diluted 1:20 in 50 µl PBS. […] Bound CD80-antibody was finally detected by a fluorescein conjugated polyclonal Goat Anti-Mouse IgG+IgM (H+L) antibody diluted 1:100 in PBS. […]

Experiment [2] deals with T2, bifunctional CD80-anti-17-1A scFv construct, clone 3-1 (human, UniProt P33681 35-242).
T2 construct: extracellular domain; CHO culture supernatant; also called pEF-DHFR+CTI+CD80+scFv 17-1A clone 3-1; CD80-scFv-construct 3-1
Briefly: flow cytometry on 17-1A-transfected CHO cells, undiluted supernatant, anti-CD80 detection. How it is done: (§1) FIG. 9.1: Binding studies of 17-1A specific bifunctional CD80-scFv-constructs on 17-1A transfected (filled lines) and untransfected CHO cells (broken lines) detected by flow cytometry. 5 ×10^5 cells were incubated in 50 μl undiluted cell-culture supernatant containing the corresponding bifunctional construct. Bound bifunctional CD80-scFv-constructs were detected by a monoclonal anti-CD80 antibody (Immunotech. Cat. No.: 1449) diluted 1:20 in 50 μl PBS. Incubation conditions were the same as described in FIG. 8.5. Bound CD80-antibody was finally detected by a fluorescein conjugated polyclonal Goat Anti-Mouse IgG+IgM (H+L) antibody diluted 1:100 in PBS. Incubation was again carried out for 30 minutes on ice. For the fixation of fluorescein-labeled cells 1% paraformaldehyd in PBS was used. As first negative control untransfected CHO was used. The second negative control contained 17-1A-transfected cells that were incubated with PBS instead of bifunctional CD80-scFv-constructs. Cells were analysed by flow cytometry on a FACS scan (Becton Dickenson).
(§2) For this purpose adherent untransfected and 17-1A-transfected CHO-cells were detached using PBS containing 0,05% Trypsine, respectively. 5 ×10^5 cells were incubated for 30 minutes on ice in 50 µl culture supernatant containing the corresponding bifunctional construct undiluted (FIG. 9.1). Bound bifunctional CD80-scFv-constructs were detected by a monoclonal anti-CD80 antibody (Immunotech. Cat. No: 1449) diluted 1:20 in 50 µl PBS. Incubation conditions were the same as above. Bound CD80-antibody was finally detected by a fluorescein conjugated polyclonal Goat Anti-Mouse IgG+IgM (H+L) antibody diluted 1:100 in PBS. Incubation was again carried out for 30 minutes on ice. For the fixation of fluorescein-labeled cells 1% paraformaldehyd in PBS was used.

Experiment [3] deals with T3, bifunctional CD80-anti-17-1A scFv construct, clone 3-5 (human, UniProt P33681 35-242).
T3 construct: extracellular domain; CHO culture supernatant; also called pEF-DHFR+CTI+CD80+scFv 17-1A clone 3-5; CD80-scFv-construct 3-5
The description is as above. As for the experimental part: as §1, §2

In experiment [4] the target is T4, bifunctional CD80-anti-17-1A scFv construct, clone 4-1 (human, UniProt P33681 35-242).
T4 construct: extracellular domain; CHO culture supernatant; also called pEF-DHFR+CTI+CD80+scFv 17-1A clone 4-1; CD80-scFv-construct 4-1
Described as above. How it is done:
as §1, §2

Experiment [5] addresses T5, bifunctional CD80-anti-17-1A scFv construct, clone 4-4 (human, UniProt P33681 35-242).
T5 construct: extracellular domain; CHO culture supernatant; also called pEF-DHFR+CTI+CD80+scFv 17-1A clone 4-4; CD80-scFv-construct 4-4
The experiment is described as above. How it is done:
as §1, §2

The target of experiment [6] is T6, bifunctional CD80-anti-17-1A scFv construct, clone 4-7 (human, UniProt P33681 35-242).
T6 construct: extracellular domain; CHO culture supernatant; also called pEFDHFR+CTI+CD80+scFv anti 17-1A 4-7; CD80-scFv-construct 4-7
The experiment is described as above. How it is done: as §1, §2

Experiment [7] deals with T7, bifunctional CD80-anti-17-1A scFv construct, clone 5-3 (human, UniProt P33681 35-242).
T7 construct: extracellular domain; CHO culture supernatant; also called pEFDHFR+CTI+CD80+scFv anti 17-1A 5-3; CD80-scFv-construct 5-3
The description is as above. How it is done:
as §1, §2

The target of experiment [8] is T8, bifunctional CD80-anti-17-1A scFv construct, clone 5-10 (human, UniProt P33681 35-242).
T8 construct: extracellular domain; CHO culture supernatant; also called pEHDFR+CTI+CD80+scFv anti 17-1A 5-10; CD80-scFv-construct 5-10
Described as above. As for the experimental part:
as §1, §2

Experiment [9] has as its target T9, bifunctional CD80-anti-17-1A scFv construct, clone 5-13 (human, UniProt P33681 35-242).
T9 construct: extracellular domain; CHO culture supernatant; also called pEF-DHFR+CTI+CD80+scFv 17-1A clone 5-13; CD80-scFv-construct 5-13
Described as above. As for the experimental part:
as §1, §2

B1: transmembrane 17-1A antigen (complete amino acid sequence, GA733-2) on transfected CHO cells (other, UniProt P16422 24-314, looked up)
chain: QEECVCENYKLAVNCFVNNNRQCQCTSVGAQNTVICSKLAAKCLVMKAEMNGSKLGRRAKPEGALQNNDGLYDPDCDESGLFKAKQCNGTSMCWCVNTAGVRRTDKDTEITCSERVRTYWIIIELKHKAREKPYDSKSLRTALQKEITTRYQLDPKFITSILYENNVITIDLVQNSSQKTQNDVDIADVAYYFEKDVKGESLFHSKKMDLTVNGEQLDLDPGQTLIYYVDEKAPEFSMQGLKAGVIAVIVVVVIAVVAGIVVLVISRKKRMAKYEKAEIKEMGEMHRELNA
notes: whole, on cells; also called 17-1A-transfected CHO-cells
B1: the binding result was “no binding (tested: undiluted culture supernatant)” in experiment [1]; “binds” in experiment [2]; “binds” in experiment [3]; “binds” in experiment [4]; “binds” in experiment [5]; “binds” in [6]. Further, the binding result in [7], in [8] and in experiment [9] was “binds” throughout.
